Experimental findings from patent US20240279678A1 are described below.

Assay [1] concerns the target HIV envelope gp120 of HIV recombinant strain NL43 that expresses GFP (HIV-1). The experiment in a line: cell-based or functional assay.
For assay [2], the target named is HIV envelope gp120 of HIV-1 strain HXB2 engineered to express Green Fluorescence Protein (HIV-1) (UniProt P04578). The experiment in a line: cell-based or functional assay.

In the case of “VRC01 antibody (antibody secretory signal construct, expressed from AGT113)”, in assay [1], the % HIV positive primary CD4 T cells, AGT113-transduced (un-transduced 1.28%) came out at 0.36% and the decrease in HIV infection, C8166 cells was 96.7%.

With sCD4(D1+D2)-IgG1 Fc (Fc fusion), in assay [2], the % GFP positive C8166 cells, HXB2-GFP with version 1, replicate 2 stood at 1.22% and the inhibition of virus infection, HXB2-GFP challenge of C8166 cells turned out to be 91%. Further, in assay [1], the % GFP positive C8166 cells, NL4-GFP with version 1, average is 8.47%; the % GFP positive C8166 cells, NL4-GFP with version 1, replicate 2 amounted to 7.49%; the % GFP positive cells, FIG. 8A, AGT117-transduced PBMC, column NL43-sCD4-Ig (control 0.46%) was determined as 0.26%; the % GFP positive cells, FIG. 8B, AGT117-transduced PBMC, column NL43-sCD4-Ig (control 7.75%) turned out to be 2.98%. Moreover, in assay [1], the % HIV positive primary CD4 T cells, AGT117-transduced (control 2.83%) amounted to 0.65%; the decrease in HIV infection, primary CD4 T cells turned out to be 77%; the proportion of infected CD4 T cells, AGT117-transduced (no vector average of 2%) was determined as 0.024%; the virus inhibition, NL4-GFP challenge of C8166 cells stood at 53%.

On to “VRC01 antibody (IL-2 secretory signal construct, expressed from AGT111)”, for which, in assay [1], the % GFP positive cells, CD4 T cells, AGT111 at 2 MOI, day 5 (no vector 0.71%) worked out at 0.38%; the % GFP positive cells, CD4 T cells, AGT111 at 2 MOI, day 7 (no vector 2.18%) came to 1.37%; the % GFP positive cells, CD4 T cells, AGT111 at 4 MOI, day 5 (no vector 0.71%) worked out at 0.32%; the % GFP positive cells, CD4 T cells, AGT111 at 4 MOI, day 7 (no vector 2.18%) was determined as 0.94%. Moreover, in assay [1], the % GFP positive cells, CD4 T cells, AGT111 at 8 MOI, day 5 (no vector 0.71%) was determined as 0.25%; the % GFP positive cells, CD4 T cells, AGT111 at 8 MOI, day 7 (no vector 2.18%) came to 0.36%; the decrease in HIV infection, C8166 cells worked out at 75.4%; the percent inhibition (cells protected), day 5, AGT111 MOI 8 is 88%. Also, in assay [1], the percent inhibition (cells protected), day 7, AGT111 MOI 8 came out at 93%; the percent inhibition (cells protected), day 9, AGT111 MOI 2 came to 6%; the percent inhibition (cells protected), day 9, AGT111 MOI 4 came to 7%.

For the substance “sCD4(D1+D2) (from UniProt P01730 26-203) (receptor)”, in assay [1], the % GFP positive cells, FIG. 8A, AGT116-transduced PBMC (control 0.46%) came to 0.3%; the % GFP positive cells, FIG. 8B, AGT116-transduced PBMC (control 7.75%) was 3.67%; the % HIV positive primary CD4 T cells, AGT116-transduced (control 2.83%) amounted to 2.65%.

For the substance “3BNC117 antibody (IL-2 secretory signal construct, expressed from AGT112)”, in assay [1], the % GFP positive (HIV-infected) cells, transduced PBMC, donor NY025 (control without vector 3.96%) amounted to 1.79% and the % GFP positive (HIV-infected) cells, transduced PBMC, donor NY026 (control without vector 0.57%) was 0.3%.
